In PMC4601027 (2015):
Non-standard residues stand in square brackets, D forms with d. No end group written: not given here. pS = N[C@@H](COP(=O)(O)O)C(=O)O

B1: Pin1 WW domain (domain or fragment)
chain: MADEEKLPPGWEKRMSRSSGRVYYFNHITNASQWERPSGNS

Tests used:
Experiment in all cases: ITC
CPEB1 pS423 peptide = CPEB1 pS423 peptide (UniProt Q9BZB8, phosphoserine at 423)
CPEB1 pS138 peptide = CPEB1 pS138 peptide (UniProt Q9BZB8, phosphoserine at 138)
CPEB1 pS248 peptide = CPEB1 pS248 peptide (UniProt Q9BZB8, phosphoserine at 248)
CPEB1 pS144 peptide = CPEB1 pS144 peptide (UniProt Q9BZB8, phosphoserine at 144)
CPEB1 pS184 peptide = CPEB1 pS184 peptide (UniProt Q9BZB8, phosphoserine at 184)
Pin1 WW domain = molecular target: B1
full-length Pin1 = full-length Pin1 (UniProt Q13526 1-163)
full-length Pin1, sequence (Q13526 whole entry): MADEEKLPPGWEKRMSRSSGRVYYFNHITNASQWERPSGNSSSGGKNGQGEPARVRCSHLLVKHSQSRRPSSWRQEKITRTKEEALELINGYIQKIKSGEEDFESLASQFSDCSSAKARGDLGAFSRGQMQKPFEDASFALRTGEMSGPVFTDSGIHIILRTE

Kd (CPEB1 pS423 peptide)	Kd (CPEB1 pS138 peptide)	Kd (CPEB1 pS248 peptide)	Kd (CPEB1 pS144 peptide)	Kd (CPEB1 pS184 peptide)	Kd (Pin1 WW domain)	Kd (full-length Pin1)	Binder
158 µM	71.3 µM	47.6 µM	75.4 µM	28.6 µM	–	–	B1
–	–	–	–	–	30.3 µM	32.3 µM	RI[pS]PPLPF-NH2 [CPEB1 pS210 peptide]
